Experimental data reported in patent publication EP4768503A1 (Keymed Biosciences (Chengdu) Co., Ltd., dated 2026).
Where a chain is given by its changes, count along the chain named. Where no end group is shown, it is not given here. [ ]: non-standard residue; d: D form. pGlu = O=C1CC[C@@H](C(=O)O)N1

T1: pyroE Aβ3-16-biotin polypeptide (human, also: biotin, position not given here)
T1 peptide: [pGlu]FRHDSGYEVHHQK

B1: 7C8 H2K2 hIgG1 (antibody, V domains shown)
VH: QVTLKESGPALVKPTQTLTLTCTFSGFSLSTSGMGVSWIRQPPGKALEWLAHIYWDDDKRYNPSLKSRLTITKDTSKNQVVLTMTNMDPVDTATYYCARYGKGFAYWGQGTLVTVSS
VL: DIVMTQSPLSLPVTPGEPASISCRSSQSIVHSNGNTYLDWYLQKPGQSPQLLIYKVSNRFSGVPDRFSGSGSGTDFTLKISRVEAEDVGVYYCFQGSHVPLTFGQGTKLEIK
notes: also called h7C8 H2 + h7C8 K2
B2: 7C8 H6K2 hIgG1 (antibody, V domains shown)
VH: QVQLQESGPGLVKPSETLSLTCTFSGFSISTSGMGVSWIRQPPGKGLEWIGHIYWDDDKRYNPSLKSRVTISKDTSKNQVSLKLSSVTAADTAVYYCARYGKGFAYWGQGTLVTVSS
VL: B1 VL
notes: also called h7C8 H6K2 hIgG1; h7C8 H6K2
B3: 7C8 H5K2 hIgG1 (antibody, V domains shown)
VH: B2 VH with I29L, G51A
VL: B1 VL
notes: also called h7C8 H5 + h7C8 K2
B4: 7C8 H7K1 hIgG1 (antibody, V domains shown)
VH: B2 VH with F24V
VL: B1 VL with I2V, D39E, Q50K
notes: also called h7C8 H7 + h7C8 K1
B5: 7C8 H4K2 hIgG1 (antibody, V domains shown)
VH: B2 VH with I29L, I50L, G51A, K77R
VL: B1 VL
notes: also called h7C8 H4 + h7C8 K2
B6: 7C8 H7K2 hIgG1 (antibody, V domains shown)
VH: B2 VH with F24V
VL: B1 VL
notes: also called h7C8 H7 + h7C8 K2
B7: 7C8 H6K1 hIgG1 (antibody, V domains shown)
VH: B2 VH
VL: B1 VL with I2V, D39E, Q50K
notes: also called h7C8 H6 + h7C8 K1
B8: 7C8 H2K1 hIgG1 (antibody, V domains shown)
VH: B1 VH
VL: B1 VL with I2V, D39E, Q50K
notes: also called h7C8 H2 + h7C8 K1
B9: 174J17 (antibody, V domains shown)
VH: EVQLVESGGGLVKPGGSLKLSCAASGFTLSDYYMYWVRQTPEKRLEWVATISDGGRYTYYPDSVKGRFTISRDIAKNNLYIQMSSLRSEDTAMYYCARGRSTMITTTRNYLALDYWGQGTSVTVSS
VL: DIQMTQSSSSFSVSVGDRVTVTCKASEDIYNRLAWYQQRPGNAPRLLISGATSLETGVPSRFSGSGSGKDYILSITSLQTEDVGTYYCQQYWRTPLTFGEGTKLELK
notes: Chimeric antibody; the constant region of the chimeric form is not specified
B10: 171P1 (antibody, V domains shown)
VH: QVQLEQPGAVSVRPGASVKLSCKASGYTFTSYWINWVKQRPGQGLEWIGNIYPSDSYTHYNQKFKDKATLTVDKSSTTAYMQISSPTSEDSAVYYCTREGTVVYWGQGTLLTVSA
VL: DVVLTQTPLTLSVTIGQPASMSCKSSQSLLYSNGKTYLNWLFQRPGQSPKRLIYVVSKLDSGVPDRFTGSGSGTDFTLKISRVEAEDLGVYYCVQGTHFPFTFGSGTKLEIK
notes: as for B9
B11: 151N5 H1K1 (antibody, V domains shown)
VH: EVQLVESGGGLVKPGGSLRLSCAASGFTFSDFYMYWVRQAPGKGLEWVATISDGGRYTYYPDRLKGRFTISRDIAKNSLYLQMNSLRAEDTAVYYCARGRSTMITTTRNYFALDYWGQGTLVTVSS
VL: DIQMTQSPSSLSASVGDRVTITCKASEDIYNRLAWYQQKPGKAPKLLISGATSLETGVPSRFSGSGSGKDYTLTISSLQPEDIATYYCQQYWRTPLTFGQGTKLEIK
notes: also called h151N5 H1 + h151N5 K1
B12: 151N5 H1K2 (antibody, V domains shown)
VH: B11 VH
VL: B11 VL with I83V
notes: also called h151N5 H1 + h151N5 K2
B13: 175P19 (antibody, V domains shown)
VH: EVMLVESGRDLVKPGGSLRLSCAASGFTFSTYAMSWIRQTPEKRLEWVATITSAGTYTYYPDSVKGRFTISRDNAKNTLYLQMRSLRSEDTAMYYCVRHELITTVVSTDYFSMDYWGQGTSVTVSS
VL: DIVLTQSPASLAVSLGQRATISCRASESVEYYGTSLMQWYQQKPGQPPKLLIYAASNVESGVPARFSGSGSGTDFSLNIHPVEEDDVAMYFCQQSRKVPLTFGAGTKLELK
notes: as for B9
B14: 185O18 (antibody, V domains shown)
VH: B13 VH with R19K, S53N, A54Y
VL: B13 VL with Y31D
notes: Chimeric antibody; also called 185018
B15: 192E15 (antibody, V domains shown)
VH: EVKLVESGGGLVQPGGSRKLSCAASGFTFSDYGMAWVRQAPGKGPEWVAFISNLAYSIYYADTVTGRFTISRQNAKNTLYLEMSSLRSEDTAMYYCARDRGYDGHSPYYAMDYWGQGTSVTVSS
VL: QAVVTQESALTTSPGETVTLTCRSSTGAVTTSNYANWVQEKPDHLFTGLIGGTSNRPPGVPARFSGSLIGDKAALTITGAQTEDEAIYFCALWYSHHWVFGGGTKLTVL
notes: as for B9
B16: 200O1 H1K1 (antibody, V domains shown)
VH: QVTLKESGPVLVKPTETLTLTCTVSGFSLSRYIVHWYRQPPGKALEWLAMIWGGGRIDYNSALKSRLTISKDNSKSQVVLTMTNMDPVDTATYYCARNFGENAEAYWGQGTLVTVSS
VL: DIQMTQSPSSLSASVGDRVTITCRASQDINIYLNWYQQKPGKVVKLLIYYTSRLHSGVPSRFSGSGSGTDFTLTISSLQPEDVATYFCQQGHTLPYTFGQGTKLEIK
notes: also called h200O1 H1K1 hIgG1; h200O1 H1K1
B17: 200O1 H5K1 (antibody, V domains shown)
VH: QVQLQESGPGLVKPSETLSLTCTVSGFSLSRYIVHWYRQPPGKGLEWIGMIWGGGRIDYNSALKSRVTISKDNSKSQVSLKLSSVTAADTAVYYCARNFGENAEAYWGQGTLVTVSS
VL: B16 VL
notes: also called h200O1 H5 + h200O1 K1
B18: 200O1 H2K1 (antibody, V domains shown)
VH: B16 VH with N73T
VL: B16 VL
notes: also called h200O1 H2 + h200O1 K1
B19: 200O1 H6K1 (antibody, V domains shown)
VH: B17 VH with N73T, S76N
VL: B16 VL
notes: also called h200O1 H6 + h200O1 K1
B20: 178D4 (antibody, V domains shown)
VH: QVQLQQSGAELVKPGASVKLSCKASGYTFTSYDLNWVRQRPEQGLEWIGWTFPGDGRTKYNEKFKGKATLTTDKSSSTAYMHLSRLTSEDSAVYFCVRWDYYGRSTGYFDVWGAGTTVTVSS
VL: QIVLTQSPAIMSASLGERVTMTCTASSSVSSSYLHWYQQRPGSSPKLWIYGTSNLASGVPARFSGSGSGTSYSLTISSMEAEDAATYYCHQYHRSPLTFGAGTKLELK
notes: as for B9
B21: 193D22 (antibody, V domains shown)
VH: EVKLVESGGGLVKPGGSLKLSCAASGFAFSSYDMSWVRQTPEKRLEWVATISNGGSYTYYPDSVKGRFSISRDNARNTLYLQMSSLRSEDTALYYCARHPLYYGNYGWWYFDVWGAGTTVTVSS
VL: DVVMTQTPLSLPVSLGDQASISCRSSQSLVYSNGNTYLYWYLQKPGQSPKLLIYKVSNRFSGVPDRFSGSGSGTDFTLKISRVEAEDLGVYFCSQSTHVPLTFGAGTKLELK
notes: as for B9
B22: 193M7 (antibody, V domains shown)
VH: B21 VH with N53S, G54R, S56T, S69T, D73N, W108Y
VL: B21 VL with Y31H, N33D, T36I
notes: as for B9
B23: 6B5 H1K2 hIgG1 (antibody, V domains shown)
VH: QVQLVQSGAEVKKPGASVKVSCKASGYTFTTYWMHWVRQAPGQGLEWIGEIDPSDSYTNYNQKFKGRATLTVDKSSSTAYMELSSLRSEDTAVYYCARSFHGNFFVYWGQGTLVTVSS
VL: EIVLTQSPATLSLSPGERATLSCRASSSVSYMHWFQQKPGQAPRLLIYSTSNLATGIPARFSGSGSGTDYTLTISRLEPEDFAVYYCQQRSSYPLTFGQGTKLEIK
notes: also called h6B5 H1 + h6B5 K2
B24: 6B5 H1K5 hIgG1 (antibody, V domains shown)
VH: B23 VH
VL: DIQMTQSPSSLSASVGDRVTITCRASSSVSYMHWFQQKPGKAPKLLIYSTSNLASGVPSRFSGSGSGTDYTLTISSLQPEDFATYYCQQRSSYPLTFGQGTKLEIK
notes: also called h6B5 H1 + h6B5 K5
B25: 6B5 H1K4 hIgG1 (antibody, V domains shown)
VH: B23 VH
VL: B24 VL with M4L, L46W
notes: also called h6B5 H1 + h6B5 K4
B26: 6B5 H1K6 hIgG1 (antibody, V domains shown)
VH: B23 VH
VL: B24 VL with N52S, A54Q
notes: also called h6B5 H1 + h6B5 K6
B27: 6B5 H1K1 hIgG1 (antibody, V domains shown)
VH: B23 VH
VL: B23 VL with L46W, T55S
notes: also called h6B5 H1 + h6B5 K1
B28: 6B5 H1K3 hIgG1 (antibody, V domains shown)
VH: B23 VH
VL: B23 VL with N52S, L53R
notes: also called h6B5 H1 + h6B5 K3

Key:
Aβ1-42 protofibril = molecular target: T2, Aβ1-42 protofibril (human); assay: SPR (Biacore T200), protofibril on CM5 chip, antibody as analyte
T2 construct: also called amyloid protofibril
T2 sequence (peptide, as listed by the source): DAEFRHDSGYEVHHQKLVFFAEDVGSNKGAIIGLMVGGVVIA

pyroE Aβ3-42 peptide = molecular target: T3, pyroE Aβ3-42 peptide (human, pyroglutamate derived from glutamic acid at the third amino acid position of Aβ (N-terminus of the peptide)); assay: graded binding, chimeric antibody (assay not named; ELISA in Example 1)
T3 construct: Synthetic peptide; It lacks the first two N-terminal residues of Aβ; also called pyroglutamate-modified β-amyloid
T3 sequence (peptide, as listed by the source): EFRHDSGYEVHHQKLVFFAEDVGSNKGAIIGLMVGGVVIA

[1] = molecular target: T1, pyroE Aβ3-16-biotin polypeptide; assay: SPR (Biacore T200), biotinylated peptide on SA chip, antibody as analyte; antigen channel not given

Binder	Kd (Aβ1-42 protofibril)	koff (Aβ1-42 protofibril)	kon (Aβ1-42 protofibril)	further results
B1	2.76 nM	0.00293 s⁻¹	1.06e+06 M⁻¹ s⁻¹	
B2	2.8 nM	0.0041 s⁻¹	1.46e+06 M⁻¹ s⁻¹	
B3	2.95 nM	0.00395 s⁻¹	1.34e+06 M⁻¹ s⁻¹	
B4	1.93 nM	0.00466 s⁻¹	2.42e+06 M⁻¹ s⁻¹	
B5	3.08 nM	0.0037 s⁻¹	1.2e+06 M⁻¹ s⁻¹	
B6	2.33 nM	0.00415 s⁻¹	1.78e+06 M⁻¹ s⁻¹	
B7	2.63 nM	0.00472 s⁻¹	1.79e+06 M⁻¹ s⁻¹	
B8	2.74 nM	0.0028 s⁻¹	1.02e+06 M⁻¹ s⁻¹	
B9				binding result (pyroE Aβ3-42 peptide): binds
B10				binding result (pyroE Aβ3-42 peptide): binds
B11				Kd [1]: 321 pM; koff [1]: 0.0002 s⁻¹; kon [1]: 622000 M⁻¹ s⁻¹
B12				Kd [1]: 319 pM; koff [1]: 0.000207 s⁻¹; kon [1]: 648000 M⁻¹ s⁻¹
B13				binding result (pyroE Aβ3-42 peptide): binds
B14				binding result (pyroE Aβ3-42 peptide): binds
B15				binding result (pyroE Aβ3-42 peptide): binds
B16				Kd [1]: 0.0011 pM; kon [1]: 682000 M⁻¹ s⁻¹
B17				Kd [1]: 0.0736 pM; koff [1]: 5.7e-08 s⁻¹; kon [1]: 776000 M⁻¹ s⁻¹
B18				Kd [1]: 0.625 pM; koff [1]: 2.38e-07 s⁻¹; kon [1]: 381000 M⁻¹ s⁻¹
B19				Kd [1]: 0.61 pM; koff [1]: 4.55e-07 s⁻¹; kon [1]: 747000 M⁻¹ s⁻¹
B20				binding result (pyroE Aβ3-42 peptide): binds
B21				binding result (pyroE Aβ3-42 peptide): binds
B22				binding result (pyroE Aβ3-42 peptide): binds
B23	2.11 nM	0.00361 s⁻¹	1.71e+06 M⁻¹ s⁻¹	
B24	1.87 nM	0.00354 s⁻¹	1.9e+06 M⁻¹ s⁻¹	
B25	1.6 nM	0.00229 s⁻¹	1.43e+06 M⁻¹ s⁻¹	
B26	1.64 nM	0.00401 s⁻¹	2.44e+06 M⁻¹ s⁻¹	
B27	1.7 nM	0.00255 s⁻¹	1.49e+06 M⁻¹ s⁻¹	
B28	1.42 nM	0.00404 s⁻¹	2.85e+06 M⁻¹ s⁻¹	
